Measured values as given in patent US12329814B2, “Combination of a substance modulating tumor immune microenvironment and immunotherapy for the treatment of cancer” (Boostimmune, Inc., priority 2022, dated 2025).

B1: 55F3: Mouse monoclonal anti-TCTP antibody; VH SEQ ID NO: 25, VL SEQ ID NO: 29; CDRs SEQ ID NO: 1-6 (antibody, listed as Mus musculus)
VH: MRVLILLWLFTAFPGILSDVQLQESGPGLVKPSQSLSLTCTATGYSIASDYAWNWIRQFPGNKLEWMGYINYSGSTGYNPSLKSRISITRDTSKNQFFLQLNSVTTEDTATYYCARFEAGYWGQGTTLTVSSAKTTPPSVYPLAPGSAAQTNSMVTLGCLVKGYFPEPVT
VL: MDMRTPAQFLGILLLWFPGIKCDIKMTQSPSSMSASLGERVTITCKASQDINRYLSWFQQKPGKSPKTLIYRANRLVDGVPSRFSGSGSGQDYSLTISSLEYGDMGIYYCLQYNEFPLTFGAGTKLELKRADAAPTVSIFPPSSEQLTSGGASVVCFLN
B2: 1-2-4: Human monoclonal anti-TCTP antibody from CAMOUSE; VH SEQ ID NO: 28, VL SEQ ID NO: 32; CDRs SEQ ID NO: 19-24 (antibody, V domains shown)
VH: MDWTWRILFLVAAATGAHSQVQLVQSGAEVKKPGASVKVSCKASGYTFFSYAMHWVRQAPGQRLEWMGWINAGNGNTKYSQKFQDRVTITRDTSATTAYMELSSLRSEDTAVYYCASWVFDYWGQGTPVTVSS
VL: MRLLAQLLGLLMLWVPGSSGDIVMTQTPLSSLVTLGQPASISCRSSQSLVHRDGNTYLSWLQQRPGQPPRLLIYKISNRFFGVPDRFSGSGAGTDFTLKISRVEAEDVGVYYCMQATQFPHTFGQGTKLEIK
modifications: Variable region of antibody

Legend:
B16F10 tumors = test: Flow cytometry of tumor-infiltrating immune cells, B16F10 tumors, anti-TCTP and anti-PD-1 antibodies; format: in vivo, C57BL/6 mice; settings: B16F10, 12 days; 55F3 200 μg i.p. every 2 days and/or anti-PD-1 RMP1-14 10 mg/kg i.p. days 0, 3, 7, 10, 14; FIG. 11C
Description: (§1) Effect of the combination of anti-TCTP antibody and anti-PD-1 antibody on T cells and NK cells in the TIME was also studied. Tumor-infiltrating immune cells were collected from B16F10 and MC38 tumors treated with anti-TCTP antibody and/or anti-PD-1 antibody and were then analyzed by flow cytometry. B16F10 cells (5×10^5 cells) or MC38 cells (3×10^5 cells) were transplanted subcutaneously into C57BL/6 mice. Anti-PD-1 antibody RMP1-14 (BioXCell; 10 mg/kg) was administered intraperitoneally on days 0, 3, 7, 10, 14 after the inoculation, and anti-TCTP antibody 55F3 (200 μg in 200 μL PBS) was administered intraperitoneally in the mice every 2 days after the inoculation. After 15 days (MC38) or 12 days (B16F10) of transplantation, single cell suspensions were prepared from tumors and subjected to flow cytometry analysis.

[1] = test system: SL4 TCTP KO+hTCTP tumor cells; test: TCTP KI SL4 (TCTP KO+hTCTP) subcutaneous tumor in C57BL/6 mice treated with anti-TCTP antibodies; format: in vivo; settings: 100 μg intraperitoneally on days 1, 4, 8, 11, vs PBS; FIG. 7
Description: HEK293Ta cells (3×10^6 cells) were transfected with pCSII-EF-MCS-IRES2-Venus-hTCTP lentiviral expression vector and its helper vectors (pMDLg/p.RRE and pCMV-VSV-G-RSV-Rev). After 48 hours of the transfection, culture supernatants were collected and filtered (0.45 μm; Millipore). TCTP KO SL4 cells from Example 1 (1×10^6 cells) were infected using the supernatant. After infection, GFP-positive human TCTP-expressing TCTP KO SL4 cells (hereafter TCTP KI SL4 cells) were sorted using FACSMelody cell sorter. TCTP KI SL4 cells (2×10^5 cells/100 μL PBS), TCTP KO SL4 cells (2×10^5 cells/100 μL PBS), or parental SL4 cells (2×10^5 cells/100 μL PBS) were inoculated into C57BL/6 mice. After cell inoculation, tumor volumes were measured over time.
TCTP KI SL4 cells (TCTP KO+hTCTP; 5×10^5 cells in 100 μL PBS) from example 3 were subcutaneously inoculated into C57BL/6 mice (Day 0). Anti-TCTP (100 μg in 100 μL PBS) antibodies were administered intraperitoneally into the mice on days 1, 4, 8, and 11. As a control, 100 μL of PBS was administered. Tumor size was measured on days 3, 6, 9, and 11. As a result, the proliferation speed of SL4 TCTP KO+hTCTP tumor cells was decreased by administration of 55F3 or 1-2-4 (FIG. 7).

SL4 tumor cells = test: SL4 subcutaneous tumor in C57BL/6 mice treated with anti-TCTP antibody; format: in vivo; settings: 200 μg/mouse intraperitoneally every other day from Day 1, vs control IgG
Description: (§2) Peritoneal exudate cells (PECs) (2×10^5 cells) were stimulated with conditioned supernatant of SL4 cells containing antibody 55F3 or control IgG, and after 2 hours of stimulation, Cxcl1 mRNA levels were determined by RT-qPCR. As a result of blockade of extracellular TCTP with antibody 55F3, the expression of Cxcl1 mRNA was suppressed (FIG. 6A). Subsequently, SL4 cells were transplanted into C57BL/6 mice via subcutaneous injection, and 55F3 or control IgG (200 μg/mouse) was then intraperitoneally administered to the mice every other day, starting from Day 1 after the transplantation, and the volume of the tumor was measured. As a result, the proliferation speed of SL4 tumor cells was decreased by administration of 55F3 (FIG. 6B), and the amount of PMN-MDSCs in the TIME was decreased (FIG. 6C).

B16F10 cells = test: B16F10 tumor treated with anti-TCTP antibody in combination with anti-PD-1 antibody; format: in vivo, C57BL/6 mice; settings: anti-TCTP 100 μg i.p. days 1, 4, 8, 11, 15, 18, 22 plus anti-PD-1 (BioXCell) 100 μg i.v. day 10, compared with checkpoint antibody alone, FIGS. 9A and 9B
Description: The influence of the combination of anti-TCTP antibodies with an anti-PD-1 antibody on tumor suppression was also studied. B16F10 (1×10^5 cells in 50 μL PBS) cells were subcutaneously inoculated into C57BL/6 mice (Day 1). An anti-PD-1 antibody (BioXCell; 100 μg in 100 μL PBS) was administered intravenously ten days after the inoculation, and anti-TCTP antibodies 55F3 and 1-2-4 (each 100 μg in 100 μL PBS) were administered intraperitoneally in the mice on days 1, 4, 8, 11, 15, 18, and 22. As a result, the effect of suppressing tumor proliferation is improved by the combined administration of an anti-TCTP antibody and a PD-1 or CTLA-4 antagonist antibody, compared with the case of single administration of a PD-1 or CTLA-4 antagonist antibody alone (FIGS. 9A and 9B).

extracellular TCTP = biological target: T1, extracellular TCTP (Mus musculus, UniProt P63028); test: Cxcl1 mRNA in peritoneal exudate cells stimulated with SL4 conditioned supernatant (RT-qPCR); format: cell-based; settings: PECs stimulated 2 hours with conditioned supernatant of SL4 cells containing antibody, vs control IgG; FIG. 6A
T1 construct: stimulated with conditioned supernatant of SL4 cells containing antibody 55F3 or control IgG; endogenous in cells; host or cells: SL4 mouse colon carcinoma cells (conditioned supernatant), applied to mouse peritoneal exudate cells
T1 sequence (P63028 1-172): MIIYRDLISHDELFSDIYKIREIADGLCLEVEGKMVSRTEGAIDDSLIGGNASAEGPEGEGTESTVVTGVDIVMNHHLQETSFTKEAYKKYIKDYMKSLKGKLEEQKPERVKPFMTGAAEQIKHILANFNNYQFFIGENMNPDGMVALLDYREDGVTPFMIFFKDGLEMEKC
Description: as §2

MC38 tumors = test: Flow cytometry of tumor-infiltrating immune cells, MC38 tumors, anti-TCTP and anti-PD-1 antibodies; format: in vivo, C57BL/6 mice; settings: MC38, 15 days; 55F3 200 μg i.p. every 2 days and/or anti-PD-1 RMP1-14 10 mg/kg i.p. days 0, 3, 7, 10, 14; FIG. 11C
Description: as §1

SL4 cells = test: SL4 tumor treated with anti-TCTP antibody in combination with anti-PD-1 antibody; format: in vivo, C57BL/6 mice; settings: 55F3 i.p. every day from Day 1 plus anti-PD-1 monoclonal antibody (BioLegend) day 10, compared with PD-1 antagonist antibody alone, FIG. 10
Description: This synergistic effect was also confirmed in the experiment using SL4 cells. SL4 cells were transplanted into C57BL/6 mice via subcutaneous injection, and thereafter, antibody 55F3 was intraperitoneally […] into the mice every day, starting from Day 1 after the transplantation. Ten days after the transplantation, an anti-PD-1 monoclonal antibody (BioLegend) was administered to the mice, and the tumor volume was then measured. As a result, it was confirmed that the effect of suppressing tumor proliferation is improved by the combined administration of an anti-TCTP antibody and a PD-1 antagonist antibody, compared with the case of single administration of a PD-1 antagonist antibody alone (FIG. 10).

Row | Molecule | CD8+ cells in tumor (abundance ratio) (B16F10 tumors) | proliferation speed of SL4 TCTP KO+hTCTP tumor cells (tumor size) [1] | proliferation speed of SL4 tumor cells (tumor volume) (SL4 tumor cells; FIG. 6B) | amount of PMN-MDSCs in the TIME (SL4 tumor cells; SL4 tumor, FIG. 6C) | effect of suppressing tumor proliferation, combined administration with anti-PD-1 antibody (B16F10 cells) | expression of Cxcl1 mRNA (extracellular TCTP) | CD8+ cells in tumor (abundance ratio) (MC38 tumors) | effect of suppressing tumor proliferation, combined administration with anti-PD-1 antibody (SL4 cells)
1 | B1 | increased | decreased | decreased | decreased | improved | suppressed | increased | improved
2 | B2 |  | decreased |  |  | improved |  |  | 
